Source: US10704030B2, “P450-BM3 variants with improved activity” (Codexis, Inc., priority 2015, dated 2020)

Assays:
Format in all cases: biochemical
[1] = Validation of generalist properties: oxidation of diclofenac by lyophilized P450-BM3 variant, UPLC-MS; settings: [Diclofenac] = 1 mM; for TON: TON = [substrate]*% conversion/[P450]; for FIOPC (A05): fold improvement over parent MCYP-1.2-A05
Method: (§1) For the production of lyophilized protein powders, LB agar plates supplemented with chloramphenicol (30 μg/mL) were streaked with E. coli containing a desired B. megaterium P450-BM3 variant in an IPTG-inducible vector. The plates were grown at 37° C. for 16 hrs before single clones were selected to inoculate a 15 mL Falcon™ tube (Fisher) containing TB media (3 mL) supplemented with chloramphenicol (30 μg/mL). The tube was shaken at 200 rpm, 30° C., and 85% humidity for 20-24 h to grow the cultures to saturation. Then, 2.5 mL of the overnight culture was used to inoculate sterile 1 L flasks containing TB medium (250 mL) supplemented with chloramphenicol (30 μg/mL), trace element solution (as described above), and 0.05 g/L ammonium iron (III) citrate. After being shaken at 250 rpm, 30° C., and 85% humidity to an OD600 of 0.8-1.2, P450 expression was induced by addition of IPTG (500 uM) and the heme precursor 5-aminolevulinic acid (5-ALA) to a final concentration of 500 uM. The cultures were grown for additional 20-24 hours and centrifuged in pre-weighed 250 mL centrifuge bottles for 20 minutes at 4000 rpm, 4° C. The supernatants were discarded, and the centrifuge bottles containing cell pellets were weighed. The pellets were resuspended in 50 mM potassium phosphate buffer with 2 mM DTT, pH 8.0 (5 mL of buffer per gram of cell pellet). The cells were lysed using a microfluidizer homogenizer, and the suspensions of cells and lysate were collected in sterile 50 mL centrifuge tubes. The samples were centrifuged for 30 minutes at 10,000 rpm, 4° C. The clarified lysate was collected into a plastic petri plate and frozen at −80° C. prior to lyophilization. The enzyme-containing lysates were lyophilized using standard methods known in the art.
(§2) Enzyme stocks (˜12 μM) were prepared by dissolving ˜20 mg of each enzyme in 100 mM potassium phosphate buffer, pH 8.0 (1 mL). The concentration of each enzyme stock solution was determined by the UV-visible absorption spectroscopy (after centrifugation to remove particulates) and diluted to standardize at 12 μM heme protein. Substrate solutions were prepared by dissolving each substrate in DMSO to reach a final concentration of 20 mM or 40 mM. Reaction mix (235 μL) followed by enzyme solution (50 μL) was added to the plates. The substrate stock solution was added to the enzyme solutions (15 μL at the two different concentrations). Each reaction contained 100 mM potassium phosphate, 1.0 mM NADP+, 25 mM glucose, 0.5 mg/mL glucose dehydrogenase, 5% DMSO and substrate at 1 or 2 mM. Loratadine, imatinib, and gefitinib (See, FIG. 1) were selected as substrates in addition to diclofenac to validate improved BM3 variants. The reactions were shaken at 450 rpm at 30° C. over 24 hours. All reactions were diluted with acetonitrile to a final concentration of 0.5 mM substrate. The plates were then centrifuged at 3,000 g for 1 hour at 20° C. The supernatant was diluted 1:1 with acetonitrile, filtered using a 0.4 micron filter, and analyzed by UPLC-MS.
(§3) For UPLC-MS analysis, the quenched and filtered reactions were transferred to 96-well HTP plates for analysis by UPLC on a Waters Acquity H-class system equipped with an autosampler. 1 uL of quenched sample was injected onto an Acquity UPLC HSS T3 column, 100 Å, (1.8 um; 2.1×100 mm). The column was eluted at a constant flow rate of 0.6 mL/min; conditions with solvent A (0.05% trifluoroacetic acid v/v, in H2O) and solvent B (0.05% trifluoroacetic acid v/v, in acetonitrile) used to elute the products of the reaction were: 0-2 min, A/B 95:5; 2-2.9 min, A/B 5:95; 2.9-3 min, A/B 95:5; 3-3.5 min, A/B 95:5. Column eluent was monitored by PDA (200-600 nm) prior to MS analysis in positive ESI mode (desolvation temperature 350° C., 3.25 kV spray voltage, cone voltage 25V). The column eluent was diverted to waste for the first 0.7 minutes of the run. For the remainder of the LC run, both MS (m/z 95-600 scan range) and MS/MS were collected. […]

[2] = Validation of generalist properties: oxidation of imatinib by lyophilized P450-BM3 variant, UPLC-MS; settings: [Imatinib] = 1 mM; for TON: TON = [substrate]*% conversion/[P450]; for FIOPC (A05): fold improvement over parent MCYP-1.2-A05
Method: as §1, §2, §3

[3] = Validation of generalist properties: oxidation of gefitinib by lyophilized P450-BM3 variant, UPLC-MS; settings: [Gefitinib] = 1 mM; for TON: TON = [substrate]*% conversion/[P450]; for FIOPC (A05): fold improvement over parent MCYP-1.2-A05
Method: as §1, §2, §3

[4] = Validation of generalist properties: oxidation of loratadine by lyophilized P450-BM3 variant, UPLC-MS; settings: [Loratadine] = 1 mM; for TON: TON = [substrate]*% conversion/[P450]; for FIOPC (A05): fold improvement over parent MCYP-1.2-A05
Method: as §1, §2, §3

| Molecule | % Conv. [1] | TON [1] | FIOPC (A05) [1] | % Conv. [2] | TON [2] | FIOPC (A05) [2] | % Conv. [3] | TON [3] | FIOPC (A05) [3] | % Conv. [4] | TON [4] | FIOPC (A05) [4] |
| --- | --- | --- | --- | --- | --- | --- | --- | --- | --- | --- | --- | --- |
| Variant 6: P450-BM3 variant of SEQ ID NO: 2: V51S; D118R; L219Y; K236H; P351T; S353T; N579T; T582A; E624D; A632S; D727S; Q931K (protein, P450_BM3, D118R; L219Y; K236H; P351T; S353T; N579T; T582A; E624D; A632S; D727S; Q931K) MLMKQASAIPQPKTYGPLKNLPHLEKEQLSQSLWRIADELGPIFRFDFPGSSSVFVSGHNLVAEVCDEERFDKSIEGALEKVRAFSGDGLATSWTHEPNWRKAHNILMPTFSQRAMKRYHEKMVDIATQLIQKWSRLNPNEEIDVADDMTRLTLDTIGLCGFNYRFNSFYRDQPHPFITSMVRALDEAMNKLQRANPDDPAYDENKRQFQEDIKVMNDYVDSIIAERRANGDQDEHDLLARMLNVEDPETGEKLDDENIRFQIITFLIAGHETTSGLLSFAIYCLLTHPEKLKKAQEEADRVLTDDTPEYKQIQQLKYIRMVLNETLRLYPTAPAFSLYAKEDTVLGGEYTITKGQPVTVLIPKLHRDQNAWGPDAEDFRPERFEDPSSIPHHAYKPFGNGQRACIGMQFALQEATMVLGLVLKHFELINHTGYELKIKEALTIKPDDFKITVKPRKTAAINVQRKEQAEQSAKKVRKKAENAHNTPLLVLYGSNMGTAEGTARDLADIAMSKGFAPQVATLDSHAGNLPREGAVLIVTASYNGHPPDNAKQFVDWLDQASADEVKGVRYSVFGCGDKTWAATYQKVPAFIDETLAAKGAENIADRGEADASDDFEGTYEEWRDHMWSDVASYFNLDIENSEDNKSTLSLQFVDSAADMPLAKMHGAFSTNVVASKELQQPGSARSTRHLEIELPKEASYQEGDHLGVIPRNYEGIVNRVTARFGLSASQQIRLEAEEEKLAHLPLAKTVSVEELLQYVELQDPVTRTQLRAMAAKTVCPPHKVELEALLEKQAYKEQVLAKRLTMLELLEKYPACEMKFSEFIALLPSIRPRYYSISSSPRVDEKQASITVSVVSGEAWSGYGEYKGIASNYLAELQEGDTITCFISTPQSEFTLPKDPETPLIMVGPGTGVAPFRGFVQARKQLKEQGKSLGEAHLYFGCRSPHEDYLYQEELENAQSEGIITLHTAFSRMPNQPKTYVQHVMEQDGKKLIELLDQGAHFYICGDGSQMAPAVEATLMKSYADVHQVSEADARLWLQQLEEKGRYAKDVWAG | ++ (5.01-10.00) | ‡‡ (1001-5000) | **** (10.01-15.00) | ++++ (15.01-20.00) | ‡‡‡‡ (10000-50000) | * (0.0-3.0) | + (0-5.00) | ‡ (0-1000) | * (0.0-3.0) | ++ (5.01-10.00) | ‡‡ (1001-5000) | **** (10.01-15.00) |
| Variant 7: P450-BM3 variant of SEQ ID NO: 2: V51S; D118R; T179V; L219Y; P351T; N579T; T582A; E624D; D727S (protein, P450_BM3, D118R; T179V; L219Y; P351T; N579T; T582A; E624D; D727S) MLMKQASAIPQPKTYGPLKNLPHLEKEQLSQSLWRIADELGPIFRFDFPGSSSVFVSGHNLVAEVCDEERFDKSIEGALEKVRAFSGDGLATSWTHEPNWRKAHNILMPTFSQRAMKRYHEKMVDIATQLIQKWSRLNPNEEIDVADDMTRLTLDTIGLCGFNYRFNSFYRDQPHPFIVSMVRALDEAMNKLQRANPDDPAYDENKRQFQEDIKVMNDYVDSIIAERRANGDQDEKDLLARMLNVEDPETGEKLDDENIRFQIITFLIAGHETTSGLLSFAIYCLLTHPEKLKKAQEEADRVLTDDTPEYKQIQQLKYIRMVLNETLRLYPTAPAFSLYAKEDTVLGGEYTISKGQPVTVLIPKLHRDQNAWGPDAEDFRPERFEDPSSIPHHAYKPFGNGQRACIGMQFALQEATMVLGLVLKHFELINHTGYELKIKEALTIKPDDFKITVKPRKTAAINVQRKEQAEQSAKKVRKKAENAHNTPLLVLYGSNMGTAEGTARDLADIAMSKGFAPQVATLDSHAGNLPREGAVLIVTASYNGHPPDNAKQFVDWLDQASADEVKGVRYSVFGCGDKTWAATYQKVPAFIDETLAAKGAENIADRGEADASDDFEGTYEEWRDHMWSDVAAYFNLDIENSEDNKSTLSLQFVDSAADMPLAKMHGAFSTNVVASKELQQPGSARSTRHLEIELPKEASYQEGDHLGVIPRNYEGIVNRVTARFGLSASQQIRLEAEEEKLAHLPLAKTVSVEELLQYVELQDPVTRTQLRAMAAKTVCPPHKVELEALLEKQAYKEQVLAKRLTMLELLEKYPACEMKFSEFIALLPSIRPRYYSISSSPRVDEKQASITVSVVSGEAWSGYGEYKGIASNYLAELQEGDTITCFISTPQSEFTLPKDPETPLIMVGPGTGVAPFRGFVQARKQLKEQGQSLGEAHLYFGCRSPHEDYLYQEELENAQSEGIITLHTAFSRMPNQPKTYVQHVMEQDGKKLIELLDQGAHFYICGDGSQMAPAVEATLMKSYADVHQVSEADARLWLQQLEEKGRYAKDVWAG | + (0-5.00) | ‡‡ (1001-5000) | **** (10.01-15.00) | ++ (5.01-10.00) | ‡‡‡‡ (10000-50000) | ** (3.01-5.0) | + (0-5.00) | ‡ (0-1000) | * (0.0-3.0) | ++ (5.01-10.00) | ‡‡ (1001-5000) | **** (10.01-15.00) |
